System: K4 kissing-loop RNA reporter
Assay: apparent KD of K4 kissing-loop reporter; higher = weaker reporter binding
Settings: Eterna round: R107
Experimental: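 RNA-MaP round R107: designed RNA switches with theophylline, tryptophan, arginine or FMN aptamers are transcribed on-chip within common flanks. They are titrated with a labelled K4 kissing-loop RNA reporter in RNA-MaP buffer (100 mM Tris pH 7.5, 80 mM KCl, 4 mM MgCl2), without ligand or with the indicated ligand. Median apparent KD per design.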

[1] = input ligand: theophylline 20 uM
[2] = input ligand: tryptophan 2.4 mM
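Note: bound reporter read as fluorescence of individual clusters on recovered sequencing chips by microscopy, with normalized cluster intensities fitted with a binding model.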

Sequence | apparent KD of K4 kissing-loop reporter (input ligand: FMN 200 uM) [nM] | apparent KD of K4 kissing-loop reporter (input ligand: arginine 13.2 mM) [nM] | apparent KD of K4 kissing-loop reporter (input ligand: none) [nM] | apparent KD of K4 kissing-loop reporter [1] [nM] | apparent KD of K4 kissing-loop reporter [2] [nM]
GUUUGCCGGUCCCGGAGUGAUGUUCCGGAUACCAGCAACUUCCUUUGCCCUUGGCAGCCGUAGCUAUACCGGGUGGCAGCUUCAG [Anresoenus] | 111 | 89.5 | 104 | 110 | 111
UUUAACGAGUGAUGUUCGAAAAGUAAUGGUGAGGAUAUCGAUUUUUCGAGAAGGCACCUCGAAGUGAUACGAAAGUAUCGCUUCG [FMN A 4] | 173 | 276 | 261 | 257 | 199
GAUCUGAACGAAAGUUCGGAUCAGUCCGAUACCAGUAUGGAUUCAUACCCUUGGCAGCGGUUAUCUGCUAUGGAGUGAUGUUCCA [Theophylline A K4 11] | 502 | 344 | 483 | 321 | 348
UUAUCUAUAUUCGAUACCAGUACCCUUUGUGUUAAUCCUUUUAUCAGUGAUGUUGAUGUGUACCCUUGGCAGCGGGUAUGGGUUU [KL-XTheo-B15] | 420 | 388 | 437 | 640 | 349
GGAUAGGAUAGAGGAUAUGGCUUACGCAGAAAUAACUUGUUGUGUUUAUCCAUAGGGAGUGAUGUUCCAGAAGGCUGUCCUAUCG [MatMod 18 - Jieux - Exclusion - FMN B] | 732 | 204 | 266 | 240 | 183
AACCGUGUGGCGGCCGCCACUAGUCUCCAGUGAUGUUGGAGAGACCACGUAAGUGGUCUCCAACAUAGGACCGGGCCAUAUGGAA [Same State - Tryptophan B (Freestyle 26)] | 204 | 78.5 | 106 | 132 | 259
CUCGAGUGAUGUUCGAUUAUUUAUACAGAUACCAGUGAAUUUUAACACCCUUGGCAGCUGGUAGUAUCGUUGUAAUUUACACAAG [JR_ExcTheophyA_Sub004] | 99.8 | 163 | 116 | 168 | 87.9
GACAGCCGGUCGGCCGCCACUUGGAGUGAUGUUCCGCGCGGCGGGCGCCGGAGGGCGUUAAGCCCAAGGACCGGGACCGGUAACG [Celeso] | 114 | 103 | 92.9 | 114 | 104
AUGUAUGAAUUAGGAUAUCGUUAGCCUAUCAUAUAUAUGAUAAAUGGAUAUGUCGUAGUGAUGUUACGAGAAGGAGUGUGGAGUA [KL-XFMN-B7] | 55.8 | 62.9 | 55.4 | 82.7 | 39
UCUGUUGUAUAUGAUACCAGCAGUGAGAGAUGAGAAGUAUAGUGAUGUUAUAUGAGAGAAUGCCCUUGGCAGCGUGUGCGUGUGG [SSTheophylB.aC] | 105 | 98.3 | 83.2 | 100 | 76.9
GGGAGUAGUGCGGCCGCCACUGAGAAAGAAGAAGAAUAUAGUGAUGUUAUAUAGGAAAGGAAGAAUAGGACCGGGCAUUAGAUUU [SSTRyptB.J] | 229 | 173 | 263 | 238 | 257
UAUAGAAACGUCCUAUCAAUAAAAUGGGAAGGAGCGAGGAAGAACUCAGGUAGGUCGCCCAAUAACCUUAGUGAUGUUAAGGAAA [Version 1] | 126 | 112 | 137 | 156 | 117
UCUUUUGGCAUGGAUAGAAUGCCGACCGAUACCAGCAAAGUAGGAUGCCCUUGGCAGCGGAGUGAUGUUCCAUUGUCGCGGUUUG [theeternabot_exclusion_KL_Theo_A_48] | 82.7 | 91.3 | 86.9 | 84.4 | 76.9
GUUUGCCGGUUCCGGAGUGAUGUUCCGGAUACCAGCAACUUCCUUUGCCCUUGGCAGCCGUAGCUAUACCGGAUGGCAGCUUCAG [Arrexean] | 96.1 | 82.7 | 89.3 | 86.7 | 95.4
AAAUAAAAGGCGGCCGCCACUGAACGCCUCCGCGUGGGUAUAUAGUGAUGUUAUAUGGCCGCCUUCAGGACCGGGCCAAAUAAAA [AstrosSSTryB#1] | 458 | 220 | 339 | 274 | 373
AAGGGCGAGGUAACGUGGAUAUCUCGUCGCAAGGAUAUCUGGAAACAGAGAAGGUGCGACAUCACCGGCAGUGAUGUUGCUGGGC | 298 | 185 | 233 | 227 | 181
GUUGACAGACUGCAAAACUAGUCAACAGACUAGGAUAUCAGGAAACUGAGAAGGAGUCAAGUUGCAGUGAUGUUGCAAGAAUAAU [KL-SSFMN-A27] | 137 | 182 | 173 | 214 | 136
AAAGUUGAUGAGUUGGGUAUGUGUUCCGAAGGAGCGAGAAUUAUCUCAGGUAGGUCGCGGAAGAUGAGUGAUGUUCAUCUAUAAA [KL-XArg-A8 #analogue] | 147 | 137 | 162 | 144 | 127
AGUUAUGUAUCAGGAUAUUAGUGAUGUUUGUUUAUGUUAGUGAUGUUGAUAUUUGUUUUAUGUAUUUAAGAAGGGAUUGAGAUGU [ccgcmullin] | 57.1 | 20.7 | 48 | 30.6 | 46.6
GCCAGCAGUACUGAUACCAGACUGCAUGUAGUGAUGUUGCAUAAGGGCAUAGAUGUCUCAGUCCCUUGGCAGCGGUACUGUUGCA [#10 K4 Theophylline B Same State] | 335 | 252 | 330 | 199 | 241
UGUCAUUGGUCGGCCGCCACUUUAUAUGGAGUGAUGUUUUGUAAAUUGUGUUGAAAGGUGUGGUAAAGGACCGGGACCGAUGACU [FiskerMod 26 - Jieux - Same State - Tryptophan B] | 1030 | 637 | 931 | 727 | 651
GCCGUACGCAUGGAUACCAGUUGCGAAGUGAUGUUUCGGGCGAUCAAAGGAUCGCCCAACAACCCUUGGCAGCCAUGCGUACGGC | 216 | 42.5 | 119 | 108 | 133

Sequence | apparent KD of K4 kissing-loop reporter (input ligand: FMN 200 uM) [nM] | apparent KD of K4 kissing-loop reporter (input ligand: arginine 13.2 mM) [nM] | apparent KD of K4 kissing-loop reporter (input ligand: none) [nM] | apparent KD of K4 kissing-loop reporter [1] [nM] | apparent KD of K4 kissing-loop reporter [2] [nM]
GGAUAGGAUAGAGGAUAUGGAGAACACAAAAGUGACUUGUUGUGUUUAUCCAUAGGGAGUGAUGUUCCAGAAGGCUGUCCUAUCG [MatMod 24 - Jieux - Exclusion - FMN B] | 296 | 178 | 201 | 183 | 156
AACCUACGAUCACAAUAGUGAUUGUAGGACUAGGAUAUGCUGAAAAGCAGAAGGAGUGAUGUUCCACUCAUGAAUAACAUGAGAA [FmnAX 4 #OpenEnded #K4Late #CoaxialStacking] | 594 | 340 | 410 | 324 | 270
AAAAUAAUCCAGUGAUGUUGGUAUUCAGAUACCAGCGACGAAAGUCGCCCUUGGCAGCUGUGGACGUACAAAAUAAGUACGUCCU | 967 | 657 | 1060 | 944 | 660
UGUUUUUACUGAAGGAGCGGCAAUUGAUACGUAGAUAUAGUGAUGUUAUAUAAGAUAGAGAGCCAGGUAGGUCGCAGAAUGUAUC [ExArgB.aC] | 214 | 212 | 237 | 252 | 231
UGUCAUUGGUCGGCCGCCACUUCGUAUGAAGUGAUGUUUUGUAGAUUGUGUUGAAAGGUGUGGUGAAGGACCGGGACCGAUGACU [FiskerMod 23 - Jieux - Same State - Tryptophan B] | 898 | 623 | 1010 | 1050 | 769
UGUUAUGUAUCAGGAUAUUAGUGAUGUUUGUUGAUGUUAGUGAUGUUGAUAUUUGUUUUAUGUAUUUAAGAAGGGAUUGAGAUGU [ooilmullin] | 53.9 | 19.2 | 38.7 | 27.8 | 41.4
GCUAUGGUAGGAAGGAGCGCUUGCUCGGUCAUAUGAGUGAUGUUCGAGACCGAGCAUUUAUAGCAGGUAGGUCGCCUACUAUAGC [Arginine B K4 8] | 253 | 223 | 192 | 200 | 198
UGUCAUUGGUCUGAUACCAGCUUGAUCGGAAACGAUCUGCUGGAGUGAUGUUCCAAGUAAAGCCCUUGGCAGCAGACCGAUGACU [TheoBS 8 #SwitchBubble #StaticStem] | 129 | 59.8 | 103 | 125 | 102
UCACUCAUGUGAAGGAGCGUGAGAAGACAUGAGUGAUGUUCAUGUCUAGACCAGCGUCUCUCACAGGUAGGUCGCACAUGAAAGG [Arg B SS t10] | 128 | 105 | 121 | 100 | 121
ACGUCACGUAUACUGGUGGUUUCGAUCGAUACCAGUAGCGAGAGUUACCCUUGGCAGCGACAUGAGUGAUGUUUAUGUAUGAUGA [#13 K4 Theophylline A Exclusion] | 639 | 551 | 593 | 560 | 492
UACUUAUAGUUAUUUCUAAAUUUAUUUAGUCAGGAUAUCGAAUAGUCGAGAAGGGACAUAAUCAAGUGAUGUUUGAUUAUUCAAA [JR_SSFMNA_Sub023] | 64.8 | 96.1 | 84.8 | 88.8 | 69.6
AAUUUUAAUCAUAAAUAAUAAAUAAAUGAUACCAGUAUUUUUUUUUACCCUUGGCAGCGUAUAUAAGGGCAGUGAUGUUGUCAGA [whbob_SS_Theo_A_w60] | 236 | 98.8 | 257 | 222 | 164
CAAGCUCUCCAAGGAUAUGAUAUCGACCCGUCUUAGUGAUGUUAAGGCUGUAGAAAUUCACAUUGAUCAGAAGGUGGUACCCUCC [theeternabot_sameState_KL_FMN_B_8] | 317 | 194 | 256 | 351 | 239
GCGGACAUUCGCAGUGAUGUUGCGACGGAAGGAGCGGAUGAAAAUCCAGGUAGGUCGCCGACAAAAUUAAUUUUAAUGUGUUCGC [#03 K4 Arginine A Same State] | 358 | 325 | 437 | 316 | 324
GAUCAUAGCACGGCCGCCACUGAUAUGCCGUGCUAUACGAGUGAUGUUCGUAAUUAUACGGGUAUCAGGACCGGGUGCAACGGUA [Tryp B SS t2] | 149 | 89.3 | 113 | 167 | 112
UUUGUAGAGGGAAGGAGCGUGAAAGAGAAAGAAUAUAGUGAUGUUAUAUAGAAGAAAGAAUCACAGGUAGGUCGCCCGGAGGAGG [SSArgB.E] | 463 | 436 | 458 | 563 | 295
CGUUUAUAGCAGGAUACCAGUACCCAUAAAGUACGUUAAUAGUAGAGUGAUGUUCUAAAGUACCCUUGGCAGCUUAGAGUGAGUG [ExTheophylB.Q] | 93.5 | 159 | 117 | 137 | 76.4
UCCUUUGUUGCCAGUGAUGUUGGACAGGAAGGAGCGGGCAUAAGCCCAGGUAGGUCGCCUGUCAACUUUCUUAUAGCCCGAAGGU [KL-XArg-A19] | 441 | 352 | 368 | 424 | 370
CCAUUCAUUUACGAUACCAGUCUAAUAUAUUUAAUCAAAACCCUCGCCGAGUGAUGUUCGGACCCUUGGCAGCGUCUGCGAGAGG [oookmullin] | 596 | 464 | 598 | 535 | 452
AAAAGAAAGUCGGCCGCCACUCAACGCAGUGAUGUUGCAAGACAGAAGACCAGUGAUGUUGGCCAGAGGACCGGGACAAAAGGCC [Same State Typtophan B GF 4] | 591 | 945 | 842 | 435 | 464
AGAGAUAUAUGAGGAUAUGAGUUAGUUAAUGAGUUAGUUUUAGUGUUGUUUGGUUAGUGAUGUUAUUUAGAAGGCGUGAGUGAUG [cxfsmullin] | 89.7 | 66.4 | 67.7 | 96.9 | 60.8

Source: the supplement of paper PMC9170038
